# Laboratory results reported in publication PMC8990738.
# Target: depolymerase Dpo71 (Acinetobacter baumannii phage vB_AbaM-IME-AB2)
# Test: SEC; Superose 6 Increase column on AKTA FPLC, equilibrated with PBS; gel filtration markers of 150 and 200 kDa; purified Dpo71 alone
substance,measurement,value
depolymerase Dpo71 (enzyme),stoichiometry N,3
